Test [1] has as its target T1, human IL-11 (AAH12506.1, Pro22-Leu199) (human, UniProt P20809 22-199).
T1 construct: The range Pro22-Leu199 counts on AAH12506.1; The Octet runs say only 'human IL-11'; also called hIL-11
T1 chain: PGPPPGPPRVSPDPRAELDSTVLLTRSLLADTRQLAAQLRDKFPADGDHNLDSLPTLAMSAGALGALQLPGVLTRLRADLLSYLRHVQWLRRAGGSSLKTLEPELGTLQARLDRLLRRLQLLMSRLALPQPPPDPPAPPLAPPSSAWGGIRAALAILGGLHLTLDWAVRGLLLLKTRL
Briefly: BLI (Octet QKe), antibody on anti-mouse Fc probe, human IL-11 300 nM. The protocol: When the hybridoma cells were cultured to a certain number, culture supernatants were collected and purified using Protein G affinity chromatography to obtain murine hybridoma antibodies (Hy5C2, Hy8C8, Hy16B5, Hy18A10, Hy18H10, Hy23G6 and Hy29C11). The affinity of the murine antibodies purified from the hybridoma supernatants was determined using an Octet QKe System instrument from Fortebio Inc. with an anti-mouse IgG Fc Capture biosensor to capture the Fc fragments of the antibodies, for which an anti-IL-11 antibody named “3C6-mFc” recombinantly expressed was used at the same concentration as a positive control. Specifically, a hybridoma supernatant was diluted with HBS-EP+ buffer (GE), and was allowed to pass through the surface of AMC probes (Cat: 18-5088, PALL), and so the antibody in the hybridoma supernatant was captured on the surface of the probes; then, human IL-11 diluted in the HBS-EP+ buffer (300 nM) was used as a mobile phase to react with the antibody captured on the surface of the probes. Both the binding and the dissociating were conducted for 300 seconds. When the experiment was finished, data from which response values of blank controls had been deducted was fitted using a 1:1 Langmuir binding model by software, and then kinetic constants for antigen-antibody binding were calculated. Binding signals were detected on the Octet QKe System instrument with Hy5C2, Hy8C8, Hy16B5, Hy18A10, and Hy18H10.

In another test the target is T2, mIL11.
T2 construct: also called murine IL-11 (NP_032376.1, Pro22-Leu199)
T2 cytokine chain: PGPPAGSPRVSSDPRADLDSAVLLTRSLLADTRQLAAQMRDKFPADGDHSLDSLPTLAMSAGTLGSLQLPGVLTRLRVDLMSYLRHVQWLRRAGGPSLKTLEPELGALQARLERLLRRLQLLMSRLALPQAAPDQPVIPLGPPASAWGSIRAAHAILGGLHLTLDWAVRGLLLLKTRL
The test can be described thus: direct ELISA, hybridoma supernatant on plate-immobilised murine IL-11, OD450. The source says: Murine anti-IL-11 hybridoma monoclones 5C2, 8C8, 16B5, 18A10, 18H10, 23G6 and 29C11 were obtained by murine hybridoma technology. The binding activity of the supernatants of those clones to human IL-11 (AAH12506.1, Pro22-Leu199; SEQ ID NO.128) and murine IL-11 (NP_032376.1, Pro22-Leu199; SEQ ID NO.129) immobilized on the surface of ELISA plates was detected via direct ELISA.
(An ELISA detects its analyte on a solid surface through an enzyme-linked reagent.)

For test [2], the target named is T3, human IL-11Rα, full length, stably expressed on STAT3-Luc HEK293 cells (human, UniProt Q14626 23-422).
T3 sequence (looked up): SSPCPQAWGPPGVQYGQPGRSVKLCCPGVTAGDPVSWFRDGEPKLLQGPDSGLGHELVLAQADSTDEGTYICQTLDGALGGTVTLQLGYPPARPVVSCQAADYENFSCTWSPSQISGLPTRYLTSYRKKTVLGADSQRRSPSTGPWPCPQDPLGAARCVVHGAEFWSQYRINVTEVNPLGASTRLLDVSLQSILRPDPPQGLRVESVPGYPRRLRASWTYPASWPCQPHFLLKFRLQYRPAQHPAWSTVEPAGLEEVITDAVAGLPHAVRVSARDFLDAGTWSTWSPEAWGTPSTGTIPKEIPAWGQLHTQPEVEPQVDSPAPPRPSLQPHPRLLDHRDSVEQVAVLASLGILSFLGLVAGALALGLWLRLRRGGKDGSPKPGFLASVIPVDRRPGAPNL
Briefly: cell-based or functional assay.

For orientation: Kd means the equilibrium constant for the complex coming apart. By koff is commonly meant the first-order rate constant of dissociation. One may read the kon as the second-order rate constant of association. Low readings indicate slow association, high ones fast association.

B1: Hy8C8 (antibody, V domains shown)
VH: DVQLVESGGGLVQPGGSRKLSCAASGFTFSSFGMHWVRQSPERGLEWVAYITSGSNTIYYADTVKGRFTISRDNPENTLFLQMTSLRSEDTAMYYCAREYYSYDEGFAYWGQGTLVTVSA
VL: EIVLTQSPTTMAASPGEKITITCSVSSSISSNYLHWYQQKPGFSPKLLIYRTSNLASGVPARFSGSGSGTSHSLTIDTMEAEDVATYYCQQGVDVPFTFGSGTKLEIKR
notes: murine hybridoma antibody
With B1, in test [1], the Kd is 1.3 nM, the koff is 0.00204 s⁻¹ and the kon was determined as 1.51e+06 M⁻¹ s⁻¹. Further, the binding result with mIL11 was “binds”.

B2: Hy18A10 (antibody, V domains shown)
VH: QVQLQQPGAELVKPGASVKMSCKASGYKFITYNMDWVKQTPGQGLEWIGTIYPGNGDTSYNQKFKGKATLTADKSSSTAYMQLSSLTSEDSAVYYCARGDLYALDYWGQGTSVTVSS
VL: SIVMTQTPKFLLVSAGDRVTITCKASQSVSNDVAWYQQKPGQSPKLLIYSASNRYTGVPDRFTGSGYGTDFTFTINTVQAEDLAVYFCQHDYSSPYTFGGGTKLEIKR
notes: murine hybridoma antibody
In test [1], B2 registered a Kd of 1.09 nM, a koff of 0.00187 s⁻¹ and an association rate constant (kon) of 1.71e+06 M⁻¹ s⁻¹. Moreover, the binding result with mIL11 is “binds”.

B3: IL-11 (Cat. 12225-HNCE, Sino Biological Inc.) (ligand, UniProt P20809 22-199, looked up)
chain: PGPPPGPPRVSPDPRAELDSTVLLTRSLLADTRQLAAQLRDKFPADGDHNLDSLPTLAMSAGALGALQLPGVLTRLRADLLSYLRHVQWLRRAGGSSLKTLEPELGTLQARLDRLLRRLQLLMSRLALPQPPPDPPAPPLAPPSSAWGGIRAAHAILGGLHLTLDWAVRGLLLLKTRL
In the case of B3, in test [2], the “EC50 of IL-11 in stimulating the transcriptional expression of STAT3-luc reporter gene” value amounted to 0.11 ng/mL.

The record behind these values is US20250197488A1 (MABWELL SHANGHAI BIOSCIENCE, published 2025).
